Assay results as given in patent US10251952B2, “Humanized anti-tau(pS422) antibody brain shuttles and use thereof” (Hoffmann-La Roche Inc., priority 2014, dated 2019).
Residue numbers refer to the chain shown, from its start. Like-named read-outs stand apart in the source and are kept apart here.

B1: VL17 with VH03: anti-human tau(pS422) antibody; VH SEQ ID NO: 48, VL SEQ ID NO: 37 (antibody, V domains shown)
VH: QSVLESGGGLVQPGGSLRLSCAVSGFSLSSNAINWVRQAPGKGLEWVGYIAVSGNTYYASWAKGRFTISRDNSKNTLYLQMNSLRAEDTAVYYCGKSNIWGPGTLVTVSS
VL: DIQMTQSPSSLSASVGDRVTITCRSSQSVRTNKLAWFQQKPGQPPKRLIYSASTLDFGVPSRFSGSGSGTEFTLTISSLQPEDFATYYCLGYFDCSIADCVAFGGGTKVEIK
modifications: humanized sequence
B2: VL17 with VH04: anti-human tau(pS422) antibody; VH SEQ ID NO: 49, VL SEQ ID NO: 37 (antibody, V domains shown)
VH: QSVLESGGGLVQPGGSLRLSCAVSGFSLSSNAINWVRQAPGKGLEWVGYIAVSGNTYYASWAKGRFTISRDSTTLYLQMNSLRAEDTAVYYCGKSNIWGPGTLVTVSS
VL: B1 VL
modifications: humanized sequence
B3: VL17 with VH15: anti-human tau(pS422) antibody; VH SEQ ID NO: 51, VL SEQ ID NO: 37 (antibody, V domains shown)
VH: B1 VH with L4V, V23A
VL: B1 VL
modifications: humanized sequence
B4: VH00/VL00: rabbit antibody reference (parent of humanized variants, from mAb 086); VH SEQ ID NO: 11, VL SEQ ID NO: 07 (antibody, listed as Oryctolagus cuniculus, V domains shown)
VH: QSVEESGGRLVTPGTPLTLTCTVSGFSLSSNAINWVRQAPGKGLEWIGYIAVSGNTYYASWAKGRFTISKASTTVDLKMTSPTAEDTGTYFCGKSNIWGPGTLVTVSL
VL: AQVLTQTTSPVSAAVGSTVTISCQSSQSVRTNKLAWFQQKPGQPPKRLIYSASTLDFGVPSRFSASGSGTQFTLTISDVQCDDAATYYCLGYFDCSIADCVAFGGGTEVVVK
B5: VH32/VL21: humanized anti-human tau(pS422) antibody; VH SEQ ID NO: 19, VL SEQ ID NO: 16 (antibody, V domains shown)
VH: EVQVLESGGGLVQPGGSLRLSCAVSGFSLSSNAINWVRQAPGKGLEWVGYIAVSGNTYYASWAKGRFTISRDNSKNTVYLQMNSLRAEDTAVYYCGKSNIWGQGTLVTVSS
VL: AQVMTQSPSSLSASVGDRVTITCRSSQSVRTNKLAWFQQKPGQPPKRLIYSASTLDFGVPSRFSGSGSGTEFTLTISSLQPEDFATYYCLGYFDSSADIVAFGGGTKVEIK
modifications: humanized sequence
B6: VH32/VL22: humanized anti-human tau(pS422) antibody; VH SEQ ID NO: 19, VL SEQ ID NO: 17 (antibody, V domains shown)
VH: B5 VH
VL: B5 VL with K33R, F57Y
modifications: humanized sequence

How the values were obtained:
human tau(pS422) [1] = biological target: T1, human tau(pS422) (Homo sapiens, UniProt P10636, S739X); test: BIAcore kinetic screening and kinetic rates of humanized VH/VL combinations; assay type: binding; details: for kd / t/2 diss: VL17 or VL19 with VH variants; for MR: molar ratio; for BIAcore: summary grading 1 to 4, key not given
Procedure: In the following Table characteristics of the different humanized variants of the rabbit light chain variable domain in combination with the humanized heavy chain variable domains VH14 and VH20, respectively, are shown. Binding partner was human tau(pS422).
Kinetic screening was performed according to Schraeml et al. (Schraeml, M. and M. Biehl, Methods Mol. Biol. 901 (2012) 171-181) on a BIAcore 4000 instrument, mounted with a BIAcore CM5 sensor. The BIAcore 4000 instrument was under the control of the software version V1.1. A BIAcore CM5 series S chip was mounted into the instrument and was hydrodynamically addressed and preconditioned according to the manufacturer's instructions. The instrument buffer was HBS-EP buffer (10 mM HEPES (pH 7.4), 150 mM NaCl, 1 mM EDTA, 0.05% (w/v) P20). An antibody capture system was prepared on the sensor surface. A polyclonal goat anti-human antibody with human IgG-Fc specificity (Jackson Lab.) was immobilized at 30 μg/ml in 10 mM sodium acetate buffer (pH 5) to spots 1, 2, 4 and 5 in the instrument's flow cells 1, 2, 3 and 4 at 10,000 RU using NHS/EDC chemistry. In each flow cell the antibodies were captured on spot 1 and spot 5. Spot 2 and spot 4 were used as reference spots. The sensor was deactivated with a 1 M ethanolamine solution. Humanized antibody derivatives were applied at concentrations between 44 nM and 70 nM in instrument buffer supplemented with 1 mg/ml CMD (carboxymethyldextrane). The antibodies were injected at a flow rate of 30 μl/min for 2 minutes. The capture level (CL) of the surface-presented antibodies was measured in rel. response units (RU). The analytes in solution, phosphorylated human tau protein, non-phosphorylated human tau protein and the phosphorylated human tau mutant protein T422S were injected at 300 nM for 3 minutes at a flow rate of 30 μl/minute. The dissociation was monitored for 5 minutes. The capture system was regenerated by a 1 minute injection of 10 mM glycine buffer, pH 1.7 at 30 μL/minute over all flow cells. Two report points, the recorded signal shortly before the end of the analyte injection, denoted as binding late (BL) and the recorded signal shortly before the end of the dissociation time, stability late (SL), were used to characterize the kinetic screening performance. Furthermore, the dissociation rate constant kd (1/s) was calculated according to a Langmuir model and the antibody/antigen complex half-life was calculated in minutes according to the formula ln(2)/(60*kd). The molar ratio (MR) was calculated according to the formula MR=(Binding Late (RU))/(Capture level (RU))*(MW(antibody)/(MW(antigen)). In case the sensor was configured with a suitable amount of antibody ligand capture level, each antibody should be able to functionally bind at least to one analyte in solution, which is represented by a molar ratio of MR=1.0. Then, the molar ratio is also an indicator for the valence mode of analyte binding. The maximum valence can be MR=2 for an antibody binding two analytes, one with each Fab valence.
In another embodiment, kinetic rates were determined at 25° C. and 37° C. using the same experimental setup, but using multiple concentration series of each analyte in solution at 0 nM (buffer), 1.2 nM, 3.7 nM, 11.1 nM, 33.3 nM, 100 nM and 300 nM. From the concentration-dependent binding behavior the kinetic data was calculated using the BIAcore evaluation software according to the manufacturer's instructions and a Langmuir 1.1 model with RMAX global.

[2] = biological target: T2, S422A tau mutant S422A SEQ ID NO: 01 (Homo sapiens, UniProt P10636, S739A); test: ELISA binding specificity of VH/VL combinations
T2 construct: (A)=full length human tau S422A mutant
Procedure: (§1) In the following Table the binding specificity for different VH/VL combinations are shown (EC50 values in [ng/ml]).
(§2) Non-biotinylated peptide/protein/aggregate was added to non-coated Maxisorb plates, biotinylated peptide/protein/aggregate in PBS was added to streptavidin-coated Maxisorb plates, and plates were incubated over-night. The supernatant was discarded and the wells washed three times with 90 μl wash buffer (lx PBS/0.1% Tween 20). Remaining reactive spots were blocked with blocking buffer (lx PBS/2% BSA (Bovine Serum Albumin Fraction V, fatty acid free, Roche, Cat. No.: 10735078001)/0.05% Tween 20) by incubating for one hour. The supernatant was discarded and the wells washed three times with 90 μl wash buffer. Samples and control antibody were prepared in 12 dilutions (1:2) in ELISA buffer (lx PBS/0.5% BSA (Bovine Serum Albumin Fraction V, fatty acid free, Roche, Cat. No.: 10735078001)/0.05% Tween 20) with a start concentration of 500 ng/ml. The incubation time was 60 minutes at room temperature on a shaker. The supernatant was discarded and the wells washed three times with 90 μl wash buffer. Solutions of secondary antibody were prepared in ELISA buffer. A total of 25 μl antibody-mix was transferred to all wells of the assay plate and the plate was thereafter incubated on shaker for 60 minutes at room temperature. The supernatant was discarded and the wells were washed three times with 90 μl wash buffer. 25 μl of ABTS solution was added to all wells. The absorbance was read at 405 nm-492 nm.

[3] = biological target: full length tau(pS422) SEQ ID NO: 02 (Homo sapiens, UniProt P10636, S739X); test: ELISA binding specificity of VH/VL combinations
Procedure: as §1, §2

[4] = biological target: T3, tau peptide residues 416 to 430 of SEQ ID NO: 01 (Homo sapiens, UniProt P10636); test: ELISA binding specificity of VH/VL combinations
T3 construct: 416 to 430
Procedure: as §1, §2

tau(pS422) aggregates = tau(pS422) aggregates (Homo sapiens, UniProt P10636, S739X); test: ELISA binding specificity of VH/VL combinations
Procedure: as §1, §2

[5] = biological target: tau(pS422) fragment SEQ ID NO: 03 (Homo sapiens, UniProt P10636, S739X); test: ELISA binding specificity of VH/VL combinations
Procedure: as §1, §2

[6] = biological target: human tau phosphorylated at S422 (Homo sapiens, UniProt P10636, S739X); test: Western Blot selectivity of humanized VH/VL combinations; assay type: binding; details: for WB: summary grading 1 to 4, key not given
Description: FIG. 5 is a Western Blot showing the selectivity of selected humanized VH/VL combinations; (1)=VH00/VL00, (2)=VH32/VL21, (3)=VH20/VL22, (4)=VH32/VL22, (5)=VH33/VL22.
The sensitivity of selected humanized VH/VL combinations to the human tau mutant S422A can be seen from the Western Blots shown in FIG. 5. All humanized variants selectively bind to human tau phosphorylated at S422.

human tau(pS422) [7] = biological target: T1, human tau(pS422); test: IHC grading in summary of biological properties; details: key not given
Description: The following table summarizes the biological properties of selected humanized VH/VL combinations.

T2 sequence (P10636 1-441 isoform P10636-8 S422A): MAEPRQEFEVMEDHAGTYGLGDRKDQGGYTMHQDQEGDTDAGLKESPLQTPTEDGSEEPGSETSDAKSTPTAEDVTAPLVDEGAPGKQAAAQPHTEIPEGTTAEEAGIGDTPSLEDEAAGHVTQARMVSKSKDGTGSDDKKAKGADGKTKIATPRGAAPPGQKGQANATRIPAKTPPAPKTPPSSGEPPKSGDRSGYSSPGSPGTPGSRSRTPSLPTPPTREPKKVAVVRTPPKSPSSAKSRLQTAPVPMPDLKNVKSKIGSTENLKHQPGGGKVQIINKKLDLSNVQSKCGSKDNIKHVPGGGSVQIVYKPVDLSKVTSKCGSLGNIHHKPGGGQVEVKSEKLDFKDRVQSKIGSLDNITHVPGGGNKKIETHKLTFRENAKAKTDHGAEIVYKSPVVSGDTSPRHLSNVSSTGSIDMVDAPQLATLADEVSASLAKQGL

Molecule | kd (human tau(pS422) [1]; 25 °C) [s⁻¹] | t/2 diss (human tau(pS422) [1]; 25 °C) [min] | t/2diss 25° C. (human tau(pS422) [1]; 25 °C) [min] | Kd (human tau(pS422) [1]; 25 °C, read-out: KD 25° C.) [nM] | t/2diss 37° C. (human tau(pS422) [1]; 37 °C) [min] | Kd (human tau(pS422) [1]; 37 °C, read-out: KD 37° C.) [nM] | MR (human tau(pS422) [1]; 25 °C) | MR (human tau(pS422) [1]; 37 °C) | EC50 S422A tau mutant S422A SEQ ID NO: 01 [2] [µg/mL] | EC50 full length tau(pS422) SEQ ID NO: 02 [3] [ng/ml] | EC50 tau peptide residues 416 to 430 of SEQ ID NO: 01 [4] [µg/mL] | EC50 tau(pS422) aggregates (tau(pS422) aggregates) [ng/ml] | EC50 tau(pS422) fragment SEQ ID NO: 03 [5] [ng/ml] | selectivity and cross-reactivity in Western Blot ([6]; FIG. 5) | BIAcore (human tau(pS422) [1]) | WB [6] | IHC (human tau(pS422) [7])
B1 | 0.00393 | 3 |  |  |  |  |  |  |  |  |  |  |  |  |  |  | 
B2 | 0.00416 | 3 |  |  |  |  |  |  |  |  |  |  |  |  |  |  | 
B3 | 0.00326 | 4 |  |  |  |  |  |  |  |  |  |  |  |  |  |  | 
B4 |  |  | 54 | 8 | 24 | 12 | 0.6 | 0.8 | 0.0479 | 5.2 | >1 | 18.1 | 6.3 | low level x-reactivity to non-S422 phosphoepitopes |  |  | 
B5 |  |  | 26 | 18 | 9 | 32 | 0.5 | 0.6 | 0.0215 | 2.9 | 0.634 | 9.4 | 4.4 |  | 2 | 2 | 3
B6 |  |  | 29 | 14 | 8 | 31 | 0.5 | 0.6 | 0.0174 | 3.5 | 0.048 | 8.3 | 5.6 |  | 1 | 1 | 1
